{"source": "patent US20140106982A1"}
{"biological_target": "mAb 2H1", "test": "VLP library affinity selection on 2H1, clones sequenced"}
{"substance": "DTQCQF (peptide)", "copies among sequenced affinity-selected clones": "17 copies"}
{"substance": "WDATLQPA (peptide)", "copies among sequenced affinity-selected clones": "2 copies"}
{"substance": "WTADLQPE (peptide)", "copies among sequenced affinity-selected clones": "1 copy"}
{"biological_target": "2C7 antibody", "test": "VLP library affinity selection on 2C7, clones sequenced"}
{"substance": "ELWRGT (peptide)", "copies among sequenced affinity-selected clones": "2 copies"}
{"substance": "LDYEGN (peptide)", "copies among sequenced affinity-selected clones": "1 copy"}
{"substance": "LDYERI (peptide)", "copies among sequenced affinity-selected clones": "3 copies"}
{"substance": "LDYMRT (peptide)", "copies among sequenced affinity-selected clones": "4 copies"}
{"substance": "LDYQRV (peptide)", "copies among sequenced affinity-selected clones": "7 copies"}
{"substance": "PLWKGN (peptide)", "copies among sequenced affinity-selected clones": "1 copy"}
{"substance": "PLWRGT (peptide)", "copies among sequenced affinity-selected clones": "1 copy"}
{"substance": "VDYERI (peptide)", "copies among sequenced affinity-selected clones": "2 copies"}
